The results in this text go back to patent US20150038408A1 (University of Washington, published 2015).

Where two headings read alike, the source gives them in different places.

The target in assay [1] is T1, A/South Carolina/1/1918 (H1N1) hemagglutinin ectodomain (Influenza A virus A/South …). The assay can be described thus: yeast surface display titration.
Assay [2] addresses T1, A/South Carolina/1/1918 (H1N1) …. The assay can be described thus: yeast surface display titration. This is another data set of the same source.

B1: HB80.3_s4_E94 (designed binder)
chain: ASTRGSGRPWKFSENVAFELALYFTNKDTPDRWAKVARYVKGRTPEEVKKHYE
Consider B1, for which, in assay [1], the binding result is on record as “binds”.

B2: HB36.4_s4_E11 (designed binder)
chain: MSNAMDGQQLNRLLLEWIGAWDPFGLGKDAYDVEADAVLKAVYETNSAFDLAMRIHWIYNFAFKRKIPFVHAQKLARRLLELKQAASSPLP
For the molecule B2, the binding result in assay [2] is on record as “binds”.

B3: HB80.3_s4_E82 (designed binder)
chain: MASTRGSGRPWKFSENVAFEIALSFTNKDTPDRWAKVARYVRGRTPEEVKKHYE
As to B3, the binding result in assay [1] is given as “binds”.
